Positions count from the first letter of the chain named. Names and notes keep the numbering of the source.
B1: PvuRts1I Y210F mutant (enzyme, UniProt Q52612 1-293, looked up)
chain: MSKTDYILRALSKISHKRWEHYIINRVVHTLDDPDIEFVCQQCIRKEGHLGKIYLADLLFPQLNLYLEIDEAHHDSNDARKADAVRRLDIVEATGFQEERIPASNITLSEVNKLVDEFVRLVKDKKEELENQGLFFRWDYDERYSAKKHINTGYMAVGPNSVFRYHRDALQCFGYRREGHHQSGGWALPAEVAQSIGLTGRVMVWFPRLFEAGEWKNALSADGNKITEQSLNATRNYQETWDYRIVMAHSRDELNRTLYRFLGVFAIDVDKSSDEVKVFSRVYSRVNVYRSQN
notes: PvuRts1I with a point mutation; also called Y210F variant; source: E. coli Rosetta2 (DE3), purified under identical conditions to wild-type PvuRts1I
B2: PvuRts1I N217A mutant (enzyme, UniProt Q52612 1-293, looked up)
chain: B1 chain with F210Y, N217A
notes: PvuRts1I with a point mutation; source: E. coli Rosetta2 (DE3), purified under identical conditions to wild-type PvuRts1I
B3: PvuRts1I N217D mutant (enzyme, UniProt Q52612 1-293, looked up)
chain: B1 chain with F210Y, N217D
notes: as for B2
B4: PvuRts1I N217K mutant (enzyme, UniProt Q52612 1-293, looked up)
chain: B1 chain with F210Y, N217K
notes: as for B2
B5: PvuRts1I E228K mutant (enzyme, UniProt Q52612 1-293, looked up)
chain: B1 chain with F210Y, E228K
notes: as for B2
B6: PvuRts1I A212N mutant (enzyme, UniProt Q52612 1-293, looked up)
chain: B1 chain with F210Y, A212N
notes: as for B2
B7: PvuRts1I W215A mutant (enzyme, UniProt Q52612 1-293, looked up)
chain: B1 chain with F210Y, W215A
notes: as for B2

Target: the molecule itself
Experiment: not stated; assembly of the purified point mutants in solution (Supplementary Fig. S3)

| Protein | stoichiometry N |
| --- | --- |
| B1 | 2 |
| B2 | 2 |
| B3 | 2 |
| B4 | 2 |
| B5 | 2 |
| B6 | 2 |
| B7 | 2 |

Source: publication PMC4157451 (Acta Crystallographica Section D: Biological Crystallography, 2014)
